Measured values: patent US20140356358A1 (Amgen, published 2014)
Residue numbers refer to the chain shown, from its start. Names and notes keep the numbering of the source.

B1: L6B isolate with insertion SEQ ID NO: 457 (other)
chain: EPKSCDKTHTCPPCPAPELLGGPSVFLFPPKPKDTLMISRTPEVTCVVVDVSHEDPEVKFNWYVDGVEVHNAKTKPREEQYNSTYRVVSVLTVLHQDWLNGKEYKCKVSNKALPAPIEKTISKAKGQPREPQVYTLPPSRDELGGCNQSSSREACGGTKNQVSLTCLVKGFYPSDIAVEWESNGQPENNYKTTPPVLDSDGSFFLYSKLTVDKSRWQQGNVFSCSVMHEALHNHYTQKSLSLSPGK
B2: L6B isolate with insertion SEQ ID NO: 472 (other)
chain: B1 chain with N147P, Q148N, S149D, S150T, S151V, E153D
B3: L6B isolate with insertion SEQ ID NO: 469 (other)
chain: B1 chain with N147E, Q148M, S149M, S150K, S151N, R152K, E153S, A154G
B4: L6B isolate with insertion SEQ ID NO: 471 (other)
chain: B1 chain with N147L, Q148R, S149N, S150F, S151M, R152K, E153Q, A154S
B5: L6B isolate with insertion SEQ ID NO: 473 (other)
chain: B1 chain with N147S, Q148F, S150R, S151H, R152M, E153G
B6: L6B isolate with insertion SEQ ID NO: 460 (other)
chain: B1 chain with N147G, Q148E, S149Y, S150N, S151Y, R152V, E153G, A154G
B7: L6B isolate with insertion SEQ ID NO: 468 (other)
chain: B1 chain with N147T, Q148L, S149G, S151A, R152P, E153T, A154L
B8: L5 isolate with insertion SEQ ID NO: 490 (other)
chain: EPKSCDKTHTCPPCPAPELLGGPSVFLFPPKPKDTLMISRTPEVTCVVVDVSHEDPEVKFNWYVDGVEVHNAKTKPREEQYNSTYRVVSVLTVLHQDWLNGKEYKCKVSNKALPAPIEKTISKAKGQPREPQVYTLPPSRDELTKNQVSLTCLVKGFYPSDIAVEWESNGGCDRQVTGFCGGGQPENNYKTTPPVLDSDGSFFLYSKLTVDKSRWQQGNVFSCSVMHEALHNHYTQKSLSLSPGK
B9: variant Fc-fragment Fc-5-73 (other)
chain: EPKSCDKTHTCPPCPAPELLGGPSVFLFPPKPKDTLMISRTPEVTCVVVDVSHEDPEVKFNWYVDGVEVHNAKTKPREEQYNSTYRVVSVLTVLHQDWLNGKEYKCKVSNKALPAPIEKTISKAKGQPREPQVYTLPPSRDELTKNQVSLTCLVKGFYPSDIAVEWESNGGCAQQWHHEYCGGGQPENNYKTTPPVLDSDGSFFLYSKLTVDKSRWQQGNVFSCSVMHEALHNHYTQKSLSLSPGK
notes: soluble elsewhere
B10: variant Fc-fragment Fc-5-69 (other)
chain: EPKSCDKTHTCPPCPAPELLGGPSVFLFPPKPKDTLMISRTPEVTCVVVDVSHEDPEVKFNWYVDGVEVHNAKTKPREEQYNSTYRVVSVLTVLHQDWLNGKEYKCKVSNKALPAPIEKTISKAKGQPREPQVYTLPPSRDELTKNQVSLTCLVKGFYPSDIAVEWESNGGCWPLQDYCGGGQPENNYKTTPPVLDSDGSFFLYSKLTVDKSRWQQGNVFSCSVMHEALHNHYTQKSLSLSPGK
notes: soluble elsewhere
B11: variant Fc-fragment Fc-5-113 (other)
chain: B10 chain with W173Q, P174G, L175M, Q176W, D177T, Y178W
notes: soluble elsewhere
B12: variant Fc-fragment Fc-5-51 (other)
chain: B10 chain with W173H, P174L, L175P, Q176F, D177A, Y178V
notes: soluble elsewhere
B13: variant Fc-fragment Fc-5-104 (other)
chain: B10 chain with W173G, P174H, L175E, Q176Y, D177M, Y178W
notes: soluble elsewhere
B14: variant Fc-fragment Fc-5-112 (other)
chain: B10 chain with W173A, P174L, L175Y, Q176P, D177T, Y178N
notes: soluble elsewhere
B15: variant Fc-fragment Fc-5-57 (other)
chain: B10 chain with W173G, P174K, L175H, Q176W, D177H, Y178Q
notes: soluble elsewhere
B16: variant Fc-fragment Fc-5-92 (other)
chain: B10 chain with W173D, P174G, L175R, Q176T, D177K
notes: soluble elsewhere
B17: variant Fc-fragment Fc-5-96 (other)
chain: B10 chain with W173M, P174Q, L175M, Q176N, D177K, Y178W
notes: soluble elsewhere
B18: variant Fc-fragment Fc-5-64 (other)
chain: B10 chain with W173H, P174S, L175F, Q176K, D177H, Y178F
notes: soluble elsewhere
B19: variant Fc-fragment Fc-5-85 (other)
chain: B10 chain with W173I, P174G, L175P, Q176F, D177W, Y178W
notes: library L5 isolate
B20: variant Fc-fragment Fc-5-95 (other)
chain: B10 chain with W173D, P174R, L175P, Q176V, D177W, Y178F
notes: library L5 isolate
B21: variant Fc-fragment Fc-5-70 (other)
chain: B10 chain with W173M, P174V, L175P, Q176F, D177S, Y178M
notes: library L5 isolate
B22: variant Fc-fragment Fc-5-110 (other)
chain: B10 chain with P174G, L175S, Q176R, D177S, Y178Q
notes: library L5 isolate
B23: variant Fc-fragment Fc-5-97 (other)
chain: B10 chain with W173N, P174M, Q176W, D177G, Y178S
notes: library L5 isolate
B24: variant Fc-fragment Fc-5-79 (other)
chain: B10 chain with W173V, P174N, L175T, Q176W, D177W, Y178S
notes: library L5 isolate
B25: variant Fc-fragment Fc-5-99 (other)
chain: B10 chain with W173Y, P174I, L175T, D177K, Y178L
notes: library L5 isolate
B26: variant Fc-fragment Fc-5-60 (other)
chain: B10 chain with W173Q, P174K, L175G, Q176W, D177V, Y178F
notes: library L5 isolate
B27: variant Fc-fragment Fc-5-55 (other)
chain: B10 chain with W173M, P174Q, L175V, Q176W, D177G, Y178S
notes: library L5 isolate
B28: variant Fc-fragment Fc-5-106-M4Q (other)
chain: B10 chain with W173V, P174F, L175N, D177F, Y178N
B29: variant Fc-fragment Fc-5-106-M4G (other)
chain: B10 chain with W173V, P174F, L175N, Q176G, D177F, Y178N
B30: variant Fc-fragment Fc-5-69-W1F (other)
chain: B10 chain with W173F
notes: also called Fc-5-69-WIF
B31: variant Fc-fragment Fc-5-106-M4S (other)
chain: B10 chain with W173V, P174F, L175N, Q176S, D177F, Y178N
B32: variant Fc-fragment Fc-5-106-M4A (other)
chain: B10 chain with W173V, P174F, L175N, Q176A, D177F, Y178N
B33: variant Fc-fragment Fc-5-69-W1Y (other)
chain: B10 chain with W173Y
notes: also called Fc-5-69-WIY
B34: variant Fc-fragment Fc-5-106-M4N (other)
chain: B10 chain with W173V, P174F, L175N, Q176N, D177F, Y178N
B35: variant Fc-fragment Fc-5-106-M4H (other)
chain: B10 chain with W173V, P174F, L175N, Q176H, D177F, Y178N

molecular target: T1, human neonatal Fc receptor (hFcRn) (human, UniProt P55899 24-290; P61769 21-119); test: phage ELISA pH 6;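 further: higher score means stronger binding and above about 3 to 5 exceeds background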
T1 construct: Biotinylated in the ELISA, Octet and yeast assays; also called human FcRn; huFcRn

ELISA score	Binder
49.2	B1
42.2	B2
43.2	B3
42.3	B4
41.8	B5
47.2	B6
43.6	B7
25	B8
54.5	B9
76.7	B10
56.1	B11
82.5	B12
82.4	B13
62.7	B14
57.8	B15
64.1	B16
72.7	B17
57.2	B18

molecular target: T1, human neonatal Fc receptor (hFcRn); test: phage ELISA pH 7.4;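 further: higher score means stronger binding and above about 3 to 5 exceeds background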

ELISA score	Binder
0.4	B1
0.4	B2
0.3	B3
0.2	B4
0.3	B5
0.4	B6
0.2	B7
0.4	B8
0.3	B9
0.6	B10
0.7	B11
0.4	B12
0.4	B14
0.3	B15
0.5	B16
0.5	B17
0.4	B18

molecular target: T1, human neonatal Fc receptor (hFcRn); test: SPR competition pH 5.5
Procedure: (§1) Binding of variant Fc-fragments to human and cynomolgus monkey FcRn was tested using a BIAcore® T100 analysis system (GE Healthcare Bio-Sciences AB Private Limited Liability Company, Uppsala, Sweden) at both pH 5.5 and pH 7.4. The test consisted of incubating various concentrations of the variant Fc-fragments or control Fc-fragments with a fixed amount of human or cynomolgus monkey FcRn under binding conditions and subsequently measuring the amount of free, unbound FcRn in these mixtures by binding to a surface (in a flow cell of a CM5 (Biacore) chip) on which an Fc-fragment was immobilized. […] Thus, the amount of unbound FcRn in the mixture was quantitatively ascertained by surface plasmon resonance through use of the BIAcore® T100 analysis system. […] Initially, a group of 23 variant-Fc-fragments (Fc-5-1 being considered a control) identified in the experiments described above were tested for binding to human FcRn.
(§2) To obtain a reasonable signal for the different molecules and conditions tested, different assay conditions were used. For assays at pH 5.5, 10 nM of human or cynomolgus monkey FcRn was mixed with serial dilutions of the variant and control Fc-fragments being tested (which ranged from 0.1˜2,000 nM) and incubated for 1 hour at room temperature in 10 mM sodium acetate, pH 5.5, 150 mM NaCl, 0.005% P20, 0.1 mg/mL BSA. As positive controls, […] human and cynomolgus monkey FcRn were each incubated in the same solution, for the same time, and at the same temperature described immediately above, but without an added Fc-fragment.

EC50	Binder
190 nM	B9
18 nM	B19
20 nM	B11
42 nM	B20
26 nM	B21
16 nM	B12
15 nM	B13
250 nM	B22
46 nM	B14
180 nM	B15
75 nM	B16
76 nM	B17
210 nM	B18
25 nM	B23
53 nM	B24
15 nM	B25
67 nM	B26
49 nM	B27

molecular target: T2, cynomolgus monkey FcRn (cynomolgus monkey, UniProt Q8SPV9 24-297; Q8SPW0 21-119, limits assumed); test: SPR competition pH 5.5
T2 construct: also called Cynomolgus FcRn
T2 sequence (Q8SPV9 24-297 limits assumed, chain 1 of 2): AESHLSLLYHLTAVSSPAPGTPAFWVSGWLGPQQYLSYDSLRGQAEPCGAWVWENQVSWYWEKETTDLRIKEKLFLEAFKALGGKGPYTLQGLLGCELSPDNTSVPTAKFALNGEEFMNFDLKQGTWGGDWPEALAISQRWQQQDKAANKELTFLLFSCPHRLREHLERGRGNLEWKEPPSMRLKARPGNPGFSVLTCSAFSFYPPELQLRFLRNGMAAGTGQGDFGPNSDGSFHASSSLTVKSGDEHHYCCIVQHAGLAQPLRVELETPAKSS
T2 sequence (Q8SPW0 21-119 limits assumed, chain 2 of 2): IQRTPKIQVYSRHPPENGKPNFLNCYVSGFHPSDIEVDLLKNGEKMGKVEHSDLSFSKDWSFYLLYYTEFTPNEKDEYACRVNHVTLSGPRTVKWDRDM
Procedure: as §1, §2

EC50	Binder
25 nM	B19
18 nM	B10
27 nM	B11
50 nM	B20
27 nM	B21
21 nM	B12
16 nM	B13
49 nM	B14
31 nM	B23
63 nM	B24
16 nM	B25
60 nM	B26
53 nM	B27

molecular target: T1, human neonatal Fc receptor (hFcRn); test: SPR competition pH 5.5; remark: another data set of the same source

EC50	Binder
34 nM	B28
100 nM	B29
20 nM	B10
57 nM	B30
58 nM	B31
27 nM	B32
140 nM	B33
100 nM	B34
100 nM	B35
